Results taken from patent publication US7402417B2, “P450 oxygenases and methods of use” (Washington State University Research Foundation, priority 2003, dated 2008).

What was measured:
[1] = substrate: [H][C@]12CCC(C)=C(CC[C@]3(C)CCC=C(C)[C@@]3([H])C1)C2(C)C; experiment: Kinetic evaluation with Sf9 microsomes enriched in recombinant 5α-hydroxylase (radio-HPLC, Michaelis-Menten); type: biochemical, Taxus cuspidata; details: other: Sf9 microsomes, recombinant enzyme, 200 μM NADPH plus regenerating system; pH 7.5
Protocol: (§1) Kinetic constants for both isomers were next evaluated (at a saturating 200 μM concentration of NADPH plus regenerating system; Shimada and Yamazai, Meth. Mol. Biol., 107:85-93, 1998). The isolated microsomes were resuspended in 50 mM Hepes, pH 7.5, containing 1 mM DTT and 5% (v/v) glycerol, and the 1 ml reactions (˜600 μg protein, 50 μM substrate dissolved in DMSO, and the requisite cofactors (e.g., NADPH plus regenerating system) were run as described previously, with the identical protocols for product analysis (Jennewein et al., Proc. Natl. Acad. Sci. USA, 98:13595-13600, 2001). DMSO was without influence on the reaction. For kinetic evaluation, following the establishment of linear reaction conditions in protein concentration and time, the response to substrate concentration was plotted by the Michaelis-Menten method (Sigmaplot 7.0) using the calibrated radio-HPLC protocol for product determination Data from three independent experiments were pooled and the line of best fit taken (R^2>0.99).

[2] = substrate: C=C1CCC[C@@]2(C)CCC3=C(C)CC[C@@H](C[C@H]12)C3(C)C; experiment: as above; type: biochemical, Taxus cuspidata; details: other: Sf9 microsomes, recombinant enzyme, 200 μM NADPH plus regenerating system; pH 7.5
Protocol: as §1

[3] = substrate: [H][C@]12CCC(C)=C(CC[C@]3(C)CCC=C(C)[C@@]3([H])C1)C2(C)C; experiment: Kinetic evaluation of taxadiene isomers, average of recombinant and T. media microsomes (FIG. 4); type: biochemical, Taxus; details: other: average of recombinant (Sf9) and T. media microsomes; substrate 1 to 500 μM
Protocol: (§2) Taxa-4(20),11(12)-diene (◯) and taxa-4(5),11(12)-diene (●) were evaluated with microsomes from S. formgiperda cells enriched with 50 pmol recombinant taxoid 5α-hydroxylase (A), and with microsomes from T. media suspension cells containing about 50 pmol of total native cytochrome P450 (B). Substrate Concentration range was varied from 1 to 500 μM in all cases.

[4] = substrate: C=C1CCC[C@@]2(C)CCC3=C(C)CC[C@@H](C[C@H]12)C3(C)C; experiment: as above; type: biochemical, Taxus; details: other: average of recombinant (Sf9) and T. media microsomes; substrate 1 to 500 μM
Protocol: as §2

B1: recombinant taxoid 5α-hydroxylase (clone S1) (Taxus cuspidata) (protein)
chain: MDALYKSTVAKFNEVTQLDCSTESFSIALSAIAGILLLLLLFRSKRHSSLKLPPGKLGIPFIGESFIFLRALRSNSLEQFFDERVKKFGLVFKTSLIGHPTVVLCGPAGNRLILSNEEKLVQMSWPAQFMKLMGENSVATRRGEDHIVMRSALAGFFGPGALQSYIGKMNTEIQSHINEKWKGKDEVNVLPLVRELVFNISAILFFNIYDKQEQDRLHKLLETILVGSFALPIDLPGFGFHRALQGRAKLNKIMLSLIKKRKEDLQSGSATATQDLLSVLLTFRDDKGTPLTNDEILDNFSSLLHASYDTTTSPMALIFKLLSSNPECYQKVVQEQLEILSNKEEGEEITWKDLKAMKYTWQVAQETLRMFPPVFGTFRKAITDIQYDGYTIPKGWKLLWTTYSTHPKDLYFNEPEKFMPSRFDQEGKHVAPYTFLPFGGGQRSCVGWEFSKMEILLFVHHFVKTFSSYTPVDPDEKISGDPLPPLPSKGFSIKLFPETIVN
notes: the S1 ORF was amplified using Pfu DNA polymerase and gene-specific primers containing a BamHI site immediately upstream of the start codon; made in house; host or cells: Spodoptera frugiperda Sf9 cells (baculovirus, pFastBac1); microsomal membranes
Protein B1 has a Km [1] of 24 ± 2.5 µM and a Km [2] of 16 ± 3.2 µM.

B2: taxoid 5α-hydroxylase (Taxus cuspidata) (protein)
chain: MDALYKSTVAKFNEVTQLDCSTESFSIALSAIAGILLLLLLFRSKRHSSLKLPPGKLGIPFIGESFIFLRALRSNSLEQFFDERVKKFGLVFKTSLIGHPTVVLCGPAGNRLILSNEEKLVQMSWPAQFMKLMGENSVATRRGEDHIVMRSALAGFFGPGALQSYIGKMNTEIQSHINEKWKGKDEVNVLPLVRELVFNISAILFFNIYDKQEQDRLHKLLETILVGSFALPIDLPGFGFHRALQGRAKLNKIMLSLIKKRKEDLQSGSATATQDLLSVLLTFRDDKGTPLTNDEILDNFSSLLHASYDTTTSPMALIFKLLSSNPECYQKVVQEQLEILSNKEEGEEITWKDLKAMKYTWQVAQETLRMFPPVFGTFRKAITDIQYDGYTIPKGWKLLWTTYSTHPKDLYFNEPEKFMPSRFDQEGKHVAPYTFLPFGGGQRSCVGWEFSKMEILLFVHHFVKTFSSYTPVDPDEKISGDPLPPLPSKGFSIKLFPRP
Protein B2 has a Km [3] of 36 µM and a Km [4] of 21.5 µM.
